From patent US20050191293A1 (Bristol-Myers Squibb, published 2005)
Where “and” joins values, the source holds several entries; their conditions need not be identical. Equal values may be shown once.

Key:
[1] = target: T1, human IP-10 (interferon gamma inducible protein 10) (human, UniProt P02778 22-98); experiment: cell-based or functional assay
[2] = target: T2, human ITAC (interferon-inducible T cell alpha chemoattractant) (human, UniProt O14625 22-94); experiment: SPR (Biacore), antigen on CM5 chip, 25 C
T2 sequence: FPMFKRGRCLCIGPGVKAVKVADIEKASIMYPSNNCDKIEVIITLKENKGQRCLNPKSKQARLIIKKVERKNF
Method: (§1) The flow was then stopped and dissociation was monitored for 5 minutes. The association and dissociation curves were fit to a Langmuir binding model using BIAevaluation software (Biacore AB).

mouse IP-10 [3] = target: T3, mouse IP-10 (mouse, UniProt P17515 22-98); experiment: SPR (Biacore), antigen on CM5 chip, 25 C
T3 construct: Bought (PeproTech 250-16)
T3 sequence: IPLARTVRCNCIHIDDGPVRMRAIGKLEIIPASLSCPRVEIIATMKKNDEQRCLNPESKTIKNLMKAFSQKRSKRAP
Method: as §1

[4] = target: T1, human IP-10 (interferon gamma inducible …); experiment: ELISA, plate coated with 1 ug/ml antigen
Method: (§2) The plates were washed with PBS/Tween and then incubated with a goat-anti-human IgG Fc polyclonal antibody conjugated with horseradish peroxidase (HRP) for 1 hour at room temperature. After washing, the plates were developed with ABTS substrate (Sigma, A-1888, 0.22 mg/ml) and analyzed by spectrophotometer at OD 415-495.

rhesus monkey IP-10 [5] = target: T4, rhesus monkey IP-10 (rhesus monkey, UniProt Q8MIZ1 22-98); experiment: ELISA, plate coated with 1 ug/ml antigen
T4 construct: Made by recombinant expression and purified by standard methods; also called Rhesus IP-10; rrmIP-10
T4 sequence: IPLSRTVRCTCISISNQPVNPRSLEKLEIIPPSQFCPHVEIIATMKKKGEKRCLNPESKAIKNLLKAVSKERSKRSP
Method: as §2

[6] = target: T5, human MIG (monokine induced by gamma interferon) (human, UniProt Q07325 23-125); experiment: ELISA, plate coated with 1 ug/ml antigen
T5 construct: Bought (PeproTech 300-26; R&D Systems for the migration assay)
T5 sequence: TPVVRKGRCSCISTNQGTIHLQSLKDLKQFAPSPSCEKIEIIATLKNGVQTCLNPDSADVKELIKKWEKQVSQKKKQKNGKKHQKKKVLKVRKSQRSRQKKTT
Method: as §2

[7] = target: T1, human IP-10 (interferon gamma inducible …); experiment: SPR (Biacore), human IP-10 on CM5 chip, 25 C
Method: (§3) Binding was measured by flowing the antibody in HBS EP buffer (provided by Biacore AB) at concentrations from 33-267 nM at a flow rate of 40 μl/min. The antigen-antibody association kinetics was followed for 5 minutes and the dissociation kinetics was followed for 8 minutes. The association and dissociation curves were fit to a 1:1 Langmuir binding model using BIAevaluation software (Biacore AB). Data corresponding to the initial few dozen seconds for association and dissociation phases alone were considered for curve fitting to minimize the effect of avidity. The experiments were performed at both 25° C. and 37° C.

[8] = target: T1, human IP-10 (interferon gamma inducible …); experiment: SPR (Biacore), human IP-10 on CM5 chip, 37 C
Method: as §3

[9] = target: T1, human IP-10 (interferon gamma inducible …); experiment: SPR (Biacore), extension of dissociation curve, 25 C
Method: as §3
(§4) The values were determined by extension of the dissociation curves to get to the time required for the 50% reduction of the Y-axis of the dissociation sensogram.

[10] = target: T1, human IP-10 (interferon gamma inducible …); experiment: SPR (Biacore), extension of dissociation curve, 37 C
Method: as §3, §4

rhesus monkey IP-10 [11] = target: T4, rhesus monkey IP-10; experiment: SPR (Biacore), antigen on CM5 chip, antibody 133 nM, 25 C
Method: as §1

[12] = target: T5, human MIG (monokine induced by gamma …); experiment: as above
Method: as §1

[13] = target: T1, human IP-10 (interferon gamma inducible …); experiment: inhibition of 0.100 nM 125I-IP-10 binding to CXCR3-expressing 300.19 cells
Method: The cells were grown in RPMI media containing 10% FCS and G418 selection. Prior to use, the cells were washed twice with Hank's Balanced Salt Solution (HBSS) at 4° C. and adjusted to 4×10⁷ cells/ml. Glass fiber plates (Millipore MultiScreen®, Cat. #MAFBNOB50) were blocked with 200 μl of a 0.1% polyethyleneimine solution one day prior to the experiment. On the day of the study, the blocking buffer was aspirated by using a Millipore manifold. The plates were washed three times with 200 μl of binding buffer (50 mM HEPES, pH 7.2, 1 mM CaCl₂, 5 mM MgCl₂, 0.5% BSA). […] The plates were incubated on a plate shaker for 60 minutes at room temperature and washed three times with wash buffer (10 mM HEPES, pH 7.2, 0.5 M NaCl, 0.5% BSA) at a volume of 200 μl per wash. The plates were dried, 25 μl of scintillant was added and the plates were counted on a Wallac Microbeta Counter. Data were analyzed using Prism software and a KD was calculated.
Competition assays were run in a similar manner to the experiment described above. […] Lastly, 25 μl of cells at a density of 1×10⁶ cells per well were added and the plates were incubated on a plate shaker for 60 minutes at room temperature, washed and counted as described above. EC₅₀ values were calculated using Prism software. Kᵢ values (in nM) were determined using the formula: […]

[14] = target: T1, human IP-10 (interferon gamma inducible …); experiment: cell-based or functional assay; remark: listed apart in the source
rhesus monkey IP-10 [15] = target: T4, rhesus monkey IP-10; experiment: cell-based or functional assay
[16] = target: T2, human ITAC (interferon-inducible T cell …); experiment: SPR (Biacore), antigen on CM5 chip, antibody 133 nM, 25 C
Method: as §1

[17] = target: T1, human IP-10 (interferon gamma inducible …); experiment: cell-based or functional assay; remark: listed apart in the source
[18] = target: T2, human ITAC (interferon-inducible T cell …); experiment: SPR (Biacore), antigen on CM5 chip, 25 C; sample 6A5
Method: as §1

mouse IP-10 [19] = target: T3, mouse IP-10; experiment: as above
Method: as §1

[20] = target: T5, human MIG (monokine induced by gamma …); experiment: SPR (Biacore), antigen on CM5 chip, 25 C; sample 6A5 Batch 2
Method: as §1

T1 sequence (P02778 other isoform, or with tags, fused parts or gaps limits assumed): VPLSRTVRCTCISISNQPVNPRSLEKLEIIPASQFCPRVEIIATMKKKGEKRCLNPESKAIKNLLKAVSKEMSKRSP

B1: 2G1 human monoclonal antibody (antibody, V domains shown)
VH: QVQLVESGGGVVQPGRSLRLSCAASGFTFSNCGMHWVRQAPGKGLEWVALIGYDGINEYYADSVKGRFTISRDNSKNTLYLQMNSLRAEDTAVFYCARDWPEGYYNGMDVWGQGTTVTVSS
VL: not shown
notes: Human IgG with kappa light chain from a hybridoma of transgenic mice
[1]
  IC50 (nM) for 300.19 Cells: inhibition of IP-10-induced calcium flux in 300.19 cells transfected to express CXCR3: 0.5 nM
  IC50 (nM) for HPBL: inhibition of IP-10-induced calcium flux in anti-CD3 activated human PBLs that express CXCR3: 2.98 nM
[2]
  binding result: no binding (tested: 133 nM)
Mouse IP-10 [3]
  binding result: no binding (tested: 133 nM)
[4]
  EC50: 0.03 µg/mL
Rhesus monkey IP-10 [5]
  EC50: 0.03 µg/mL
[6]
  EC50: 0.045 µg/mL
[7]
  Kd: ~0.198 nM
  koff: 7.5e-06 s⁻¹
  kon: 37800 M⁻¹ s⁻¹
[8]
  Kd: 0.34 nM
  koff: 4.97e-05 s⁻¹
  kon: 148000 M⁻¹ s⁻¹
[9]
  Half-life (dissociation of half of the antibody-antigen complex): 25.7 h
[10]
  Half-life (dissociation of half of the antibody-antigen complex): 3.87 h
Rhesus monkey IP-10 [11]
  Kd: 0.26 nM
[12]
  Kd: 70.1 nM
[13]
  Ki: 0.09 nM

B2: 6B10 human monoclonal antibody (antibody, V domains shown)
VH: QVQLVESGGGVVQPGRSLRLSCAASGFTFSNSAMHWVRQAPGKGLEWVALIPFDGYNKYYADSVKGRFTISRDNSKNTLYLQMNSLRAEDTAVYYCAREGGYTGYDGGFDYWGQGILVTVSS
VL: EIVLTQSPATLSLSPGERATLSCRASQSVSSYLAWYQQKPGQAPRLLIYDASNRATGIPARFSGSGSGTDFTLTISSLEPEDFAVYYCQQRSNWPPYTFGQGTKLEIK
notes: as for B1
[1]
  IC50 (nM) for 300.19 Cells: inhibition of IP-10-induced calcium flux in 300.19 cells transfected to express CXCR3: 0.5 nM
  IC50 (nM) for HPBL: inhibition of IP-10-induced calcium flux in anti-CD3 activated human PBLs that express CXCR3: 4.4 nM
[14]
  THP-1 IP-10 IC50: inhibition of migration of CXCR3-expressing 300.19 cells induced by native IP-10 in THP-1 supernatant, MIG blocked by anti-MIG: 0.193 µg/mL
  rhIP-10 IC50: inhibition of migration of CXCR3-expressing 300.19 cells induced by 100 ng/ml recombinant human IP-10: 1.1 µg/mL
Rhesus monkey IP-10 [15]
  rrmIP-10 IC50: inhibition of migration of CXCR3-expressing 300.19 cells induced by 100 ng/ml recombinant rhesus macaque IP-10: 0.149 µg/mL
[4]
  EC50: 0.03 µg/mL
Rhesus monkey IP-10 [5]
  EC50: 0.045 µg/mL
[6]
  EC50: 0.02 µg/mL
[7]
  Kd: 1.78 nM
  koff: 0.000172 s⁻¹
  kon: 95000 M⁻¹ s⁻¹
[8]
  Kd: 2.54 nM
  koff: 0.000504 s⁻¹
  kon: 199000 M⁻¹ s⁻¹
[9]
  Half-life (dissociation of half of the antibody-antigen complex): 1.12 h
[10]
  Half-life (dissociation of half of the antibody-antigen complex): 0.38 h
Rhesus monkey IP-10 [11]
  Kd: 2.01 nM
[12]
  Kd: 15.4 nM
[16]
  Kd: 51.5 nM
[13]
  Ki: 0.3 nM

B3: 6A5 human monoclonal antibody (antibody, V domains shown)
VH: QMQLVESGGGVVQPGRSLRLSCTASGFTFSNNGMHWVRQAPGKGLEWVAVIWFDGMNKFYVDSVKGRFTISRDNSKNTLYLEMNSLRAEDTAIYYCAREGDGSGIYYYYGMDVWGQGTTVTVSS
VL: not shown
notes: Human IgG with kappa light chain from a hybridoma; also called 6A5 Batch 2; 6A5 (Batch 2)
[1]
  IC50 (nM) for 300.19 Cells: inhibition of IP-10-induced calcium flux in 300.19 cells transfected to express CXCR3 (sample 6A5): 0.61 nM
  IC50 (nM) for 300.19 Cells: inhibition of IP-10-induced calcium flux in 300.19 cells transfected to express CXCR3 (sample 6A5 Batch 2): 0.42 nM
  IC50 (nM) for HPBL: inhibition of IP-10-induced calcium flux in anti-CD3 activated human PBLs that express CXCR3 (sample 6A5): 2.85 nM
  IC50 (nM) for HPBL: inhibition of IP-10-induced calcium flux in anti-CD3 activated human PBLs that express CXCR3 (sample 6A5 Batch 2): 2.18 nM
[14]
  THP-1 IP-10 IC50: inhibition of migration of CXCR3-expressing 300.19 cells induced by native IP-10 in THP-1 supernatant, MIG blocked by anti-MIG (sample 6A5 (Batch 2)): 0.132 µg/mL
  rhIP-10 IC50: inhibition of migration of CXCR3-expressing 300.19 cells induced by 100 ng/ml recombinant human IP-10 (sample 6A5 (Batch 2)): 0.156 µg/mL
Rhesus monkey IP-10 [15]
  rrmIP-10 IC50: inhibition of migration of CXCR3-expressing 300.19 cells induced by 100 ng/ml recombinant rhesus macaque IP-10 (sample 6A5 (Batch 2)): 0.119 µg/mL
[17]
  Expt. 1 IC50: inhibition of MS-CSF induced migration of CXCR3-expressing 300.19 cells, MIG neutralized by anti-MIG (sample 6A5 (Batch 2)): 0.1 µg/mL
  Expt. 2 IC50: inhibition of MS-CSF induced migration of CXCR3-expressing 300.19 cells, MIG neutralized by anti-MIG (sample 6A5 (Batch 2)): 0.236 µg/mL
[4]
  EC50: 0.035 µg/mL and 0.062 µg/mL
Rhesus monkey IP-10 [5]
  EC50: 0.125 µg/mL and 0.09 µg/mL
[7]
  Kd: 1.2 nM and 0.96 nM
  koff: 3.64e-05 s⁻¹ and 3.1e-05 s⁻¹
  kon: 31100 M⁻¹ s⁻¹ and 32000 M⁻¹ s⁻¹
[8]
  Kd: 0.7 nM and 0.74 nM
  koff: 7.15e-05 s⁻¹ and 6.26e-05 s⁻¹
  kon: 102000 M⁻¹ s⁻¹ and 84100 M⁻¹ s⁻¹
[9]
  Half-life (dissociation of half of the antibody-antigen complex): 5.29 h and 6.21 h
[10]
  Half-life (dissociation of half of the antibody-antigen complex): 2.69 h and 3.87 h
[18]
  binding result: no binding (tested: 133 nM)
Mouse IP-10 [19]
  binding result: no binding (tested: 133 nM)
Rhesus monkey IP-10 [11]
  Kd: 1.06 nM and 1.23 nM
[20]
  binding result: no binding (tested: 133 nM)
[13]
  Ki: 0.67 nM and 0.35 nM
